Assay results as given in publication PMC5560549.

Tests used:
[1] = biological target: human FcRn (neonatal Fc receptor), biotinylated (human) (UniProt P55899); assay: SPR; Biacore 3000; biotinylated FcRn captured on streptavidin coupled to a CM5 chip; antibody 0-10 nM in HBS-EP pH 6.0 injected at 50 ul/min, 3 min association, 3 min dissociation; regeneration with HBS-EP pH 8.0; 1:1 Langmuir model
[2] = biological target: human FcRn (Sino Biological), biotinylated (UniProt P55899); assay: ELISA; conditions: 37°C (incubations), PBS (concentration not stated), PBST (PBS + 0.05% (v/v) Tween 20) adjusted to pH 6.0 or pH 7.4 for the washes. The pH of the antibody dilution buffer is
[3] = biological target: human FcRn (Sino Biological), biotinylated (UniProt P55899); assay: SPR (Biacore 3000); conditions: pH 6.0, not stated for this buffer (the HBS-EP+ used in the PCSK9 experiments contained 150 mM NaCl), HBS-EP buffer pH 6.0. Its composition is not given. The HBS-EP+ of the PCSK9 SPR section was 10 mM HEPES, 3

| Substance | Kd [1] | koff [1] | kon [1] | EC50 ([2]; pH 6.0) | EC50 ([2]; pH 7.4) | ka [3] | kd [3] |
| --- | --- | --- | --- | --- | --- | --- | --- |
| F0016A, a human IgG1 anti-PCSK9 mAb (alirocumab) (antibody) | 4.88 nM | 0.00617 s⁻¹ | 1.27e+06 M⁻¹ s⁻¹ |  |  |  |  |
| F0016D (alirocumab Fc M253Y/S255T/T257E) M253Y;S255T;T257E |  |  |  | 1.75 µg/mL | 8.87 µg/mL | 1.05e+06 M⁻¹ s⁻¹ | 0.00201 s⁻¹ |
| F0016D, Fc variant M253Y/S255T/T257E of F0016A (antibody) | 1.91 nM | 0.00201 s⁻¹ | 1.05e+06 M⁻¹ s⁻¹ |  |  |  |  |
| F0016C (alirocumab Fc M429L/N435S) M429L;N435S |  |  |  | 1.56 µg/mL | 16.5 µg/mL | 1.36e+06 M⁻¹ s⁻¹ | 0.0024 s⁻¹ |
| F0016B (alirocumab Fc T251Q/M429L) T251Q;M429L |  |  |  | 3.47 µg/mL | 12.2 µg/mL | 1.43e+06 M⁻¹ s⁻¹ | 0.00302 s⁻¹ |
| F0016C, Fc variant M429L/N435S of F0016A (antibody) | 1.76 nM | 0.0024 s⁻¹ | 1.36e+06 M⁻¹ s⁻¹ |  |  |  |  |
| F0016B, Fc variant T251Q/M429L of F0016A (antibody) | 2.11 nM | 0.00302 s⁻¹ | 1.43e+06 M⁻¹ s⁻¹ |  |  |  |  |
| F0016A (alirocumab sequence, wild-type Fc) |  |  |  | 30.4 µg/mL | 45.1 µg/mL | 1.27e+06 M⁻¹ s⁻¹ | 0.00617 s⁻¹ |
